Results on one molecule are retold here after patent US7750123B2.

Substrate in the assay: S protein of GD03T on pseudotyped HIV virus (SARS-CoV (GD03T0013 isolate))

B1: 80R IgG1 (antibody, V domains shown)
VH: EVQLVQSGGGVVQPGKSLRLSCAASGFAFSSYAMHWVRQAPGKGLEWVAVISYDGSNKYYADSVKGRFTISRDNSKNTLYLQMNSLRAEDTAVYYCARDRSYYLDYWGQGTLVTVSS
VL: ETTLTQSPATLSLSPGERATLSCRASQSVRSNLAWYQQKPGQAPRPLIYDASTRATGIPDRFSGSGSGTDFTLTISRLEPEDFAVYYCQQRSNWPPTFGQGTKVEVK
In the case of B1, the inhibition of pseudoviral infection of ACE2-expressing 293T cells (luciferase) is more than 50 µg/mL.
